Measured values published in patent US9119839B2, “Cancer treatment” (Pfizer Inc., priority 2009, dated 2015).

B1: tremelimumab (antibody, listed as Homo sapiens)
VH: GVVQPGRSLRLSCAASGFTFSSYGMHWVRQAPGKGLEWVAVIWYDGSNKYYADSVKGRFTISRDNSKNTLYLQMNSLRAEDTAVYYCARDPRGATLYYYYYGMDVWGQGTTVTVSSASTKGPSVFPLAPCSRSTSESTAALGCLVKDYFPEPVTVSWNSGALTSGVH
VL: PSSLSASVGDRVTITCRASQSINSYLDWYQQKPGKAPKLLIYAASSLQSGVPSRFSGSGSGTDFTLTISSLQPEDFATYYCQQYYSTPFTFGPGTKVEIKRTVAAPSVFIFPPSDEQLKSGTASVVCLLNNFYPREAKV
notes: anti-CTLA4 monoclonal IgG2 antibody 11.2.1; Arm A of trial A3671009

Tests used:
[1] = system: previously-untreated, unresectable melanoma; test: Clinical trial A3671009, randomized multicenter Phase 3 study of tremelimumab versus chemotherapy: overall survival by baseline serum CRP category; assay type: in vivo, human; details: for Median OS: tremelimumab 15 mg/kg i.v. every 90 days (Arm A) or dacarbazine/temozolomide (Arm B); for HR (hazard ratio for survival for the two treatment arms): CTLA4 blockade versus chemotherapy
Method: Patients randomized to Arm A received intravenous tremelimumab at a dose of 15 mg/kg every 90 days for up to four doses. Patients randomized to Arm B received either dacarbazine at 1000 mg/m^2 or temozolomide at 200 mg/m^2 at the discretion of the investigator. The primary objective of the trial was to compare overall survival of patients in the two treatment arms. Objective tumor response was a secondary endpoint. In the A3671009 trial, serum CRP was measured in most patients before initiation of treatment. In the analysis described below, baseline CRP refers to the result of a CRP assay performed on serum drawn from patients up to 14 days prior randomization into the study. […] The hazard ratio of 1.48 represents a 48% improvement in overall survival in favor of patients who received CTLA4 blockade.

CRP = details: treatment with IL-6 / IL-6 receptor inhibitor; cited from earlier work
[2] = patients with baseline CRP > 1.5 ULN
[3] = patients with baseline CRP ≦ 1.5 ULN

Row | Molecule | Median OS [1, 2] [months] | Median OS [1, 3] [months] | effect on CRP levels (CRP) | HR (hazard ratio for survival for the two treatment arms) ([1]; baseline CRP > 1.5 ULN, P-value 0.3076) | HR (hazard ratio for survival for the two treatment arms) ([1]; baseline CRP ≦ 1.5 ULN, P-value 0.0037) | improvement in overall survival ([1]; low baseline CRP, in favor of CTLA4 blockade versus chemotherapy) [%] | difference in overall survival between treatment groups ([1]; patients with high baseline CRP, versus chemotherapy (FIG. 2)) | difference in overall survival between treatment groups ([1]; patients with low baseline CRP, versus chemotherapy (FIG. 1))
1 | dacarbazine or temozolomide [Chemotherapy, reference compound] | 6.1 | 12.7 |  |  |  |  |  | 
2 | tocilizumab |  |  | reduce CRP levels |  |  |  |  | 
3 | B1 | 6.1 | 19.1 |  | 0.86 | 1.48 | 48 | no apparent difference | clinically meaningful and statistically significant difference
